± gives the uncertainty stated by the source.

A short description of the data set: amyloid nucleation score (Sup35N fusion, yeast selection) (log enrichment); library NNK3; higher = more nucleation; inactive = no reads after selection. In outline: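 Nucleation score: DiMSum log enrichment of output over input reads, centred on the mode score of non-aggregating sequences. Only sequences with at least 100 input reads were kept. Reads came from Illumina sequencing of plasmid inserts before and after 7 days of growth at 30°C without adenine and uracil, in psi-negative yeast expressing Sup35N fused to peptides of 20 random codons after 24 hours of induction with 100 μM copper sulfate.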
With SHSAFEGKVC, the amyloid nucleation score entry is “inactive”.

As for ITFNRSSSKNCSQKVKGRTL, the amyloid nucleation score entry is “inactive”.

Regarding FVDWFLVGCRMVMLDRVLAS, the amyloid nucleation score result was “inactive”.

As for MSRTKPLGF, the amyloid nucleation score result is “inactive”.

For the substance MMNSWDPVMLYSYGNTEVVH, the amyloid nucleation score result was “inactive”.

Turning to RHEHREGNGDVPLNV, the amyloid nucleation score entry is “inactive”.

KPVFYGPIRCFISVCI: the amyloid nucleation score is 1.84 ± 0.09.

With SVSLLLRFVILLCTFVQYGW, the amyloid nucleation score result was “inactive”.

As for LSTWSHPSCDRTYVNLKNIV, the amyloid nucleation score entry is “inactive”.

For the substance YSRSGISFFTGRHKLFSMYG, the amyloid nucleation score entry was “inactive”.

Consider FTSMFVLIVILSQMLSLQFR, for which the amyloid nucleation score result was “inactive”.

Consider RMYPHE, for which the amyloid nucleation score entry was “inactive”.

With VTVSAQPAIK, the amyloid nucleation score result is “inactive”.

With TAESKRH, the amyloid nucleation score entry is “inactive”.

As for NVYMRSYKIRSCMTFRTLAL, the amyloid nucleation score result is “inactive”.

With TQPDLV, the amyloid nucleation score entry is “inactive”.

As to RVMCTYTRYLWFKFISLMMV, the amyloid nucleation score result is “inactive”.

Regarding SNMVPLVNSIPRKGVVKG, the amyloid nucleation score entry was “inactive”.

Turning to APDQLF, the amyloid nucleation score result was “inactive”.

For the substance VSKESILGGRCVM, the amyloid nucleation score entry is “inactive”.

Substance MLELLTFTDFLGTTDITRNS had an amyloid nucleation score of -0.113 ± 0.39.

For the substance VGLFRESPWEV, the amyloid nucleation score result was “inactive”.

For VWVTFMRAVMTLELCLERMR, the amyloid nucleation score entry is “inactive”.

In the case of VDYSRALTAYVCIPANFSVP, the amyloid nucleation score result was “inactive”.

In the case of KICSIVPLYIRGGHSLGSVV, the amyloid nucleation score result was “inactive”.

As for FWQSIYDGMGSVIFHHGFTQ, the amyloid nucleation score amounted to 0.434 ± 0.14.

With SKNATIQAMFERLVVVIS, the amyloid nucleation score result is “inactive”.

Consider TACMRNVRTNIGKHTSQYLH, for which the amyloid nucleation score result is “inactive”.

For NTGLNFCRASLSWTLGLYSS, the amyloid nucleation score result is “inactive”.

On to YWIAIFTLHFLLDPRFRNSM, for which the amyloid nucleation score result was “inactive”.

With EIFVFTM, the amyloid nucleation score entry is “inactive”.

In the case of MTGLLMSKTARFCRRNR, the amyloid nucleation score result was “inactive”.

Turning to KKYFSVRWVTFWISRV, the amyloid nucleation score entry was “inactive”.

As to PFTTSYPDVQLTMKFNSWRN, the amyloid nucleation score was found to be 1.56 ± 0.13.

As for PRIFLSR, the amyloid nucleation score result was “inactive”.

The substance ISVAWWGCSTAYRRCKD showed an amyloid nucleation score of 1.14 ± 0.12.

Take VEMGDSVRSRGYSISVFLRK: the amyloid nucleation score entry was “inactive”.

In the case of FYVSSTP, the amyloid nucleation score entry was “inactive”.

As to TSSQKDIWQDVYGLLFWAQS, the amyloid nucleation score result is “inactive”.

VLMQSS gave an amyloid nucleation score of -0.36 ± 1.2.

With VWVLSA, the amyloid nucleation score entry is “inactive”.

In the case of EYADTEKVASNVLFFSRLAG, the amyloid nucleation score result is “inactive”.

In the case of LYWMVSMTTDR, the amyloid nucleation score result is “inactive”.

As for GFWWVTRPSTPARLSSMSPQ, the amyloid nucleation score result is “inactive”.

For HFNCRYNAGCDGVLVFDVLL, the amyloid nucleation score result is “inactive”.

Consider MWPYIMILGIVDTMWLLLSP, for which the amyloid nucleation score result was “inactive”.

With SMASGRSALIKVV, the amyloid nucleation score entry is “inactive”.

On to PDHSHHCV, for which the amyloid nucleation score result was “inactive”.

Take WLHRTKLWPYFYVKLFPRDK: the amyloid nucleation score entry is “inactive”.

On to LLWLLIWEFHT, for which the amyloid nucleation score result is “inactive”.

As to IIITVVGSCYSV, the amyloid nucleation score was 1.7 ± 0.071.

For the substance RVDPTSRMSGIYHWILT, the amyloid nucleation score entry is “inactive”.

For the substance RLYFYDEKCIGCHGSNSLTQ, the amyloid nucleation score entry is “inactive”.

On to VKRVKMLAYPRHFLLMMSGK, for which the amyloid nucleation score entry was “inactive”.

Turning to PVNIVCTVNSLSGSYED, the amyloid nucleation score result is “inactive”.

TWINFFGTYILWPNFNYSTR registered an amyloid nucleation score of 2.66 ± 0.064.

Turning to SIESPSNIMS, the amyloid nucleation score result was “inactive”.

IMILFI returned an amyloid nucleation score of 0.13 ± 0.49.

As for SAPKWGGTYDRVCTISNFTV, the amyloid nucleation score result was “inactive”.

As to VKGQCHYYLLSQLSGSSPVI, the amyloid nucleation score entry was “inactive”.

On to NVIRGGQGLVGPAIMFRDGV, for which the amyloid nucleation score result is “inactive”.

With ISVLVKWLVAERTSYWIMIP, the amyloid nucleation score entry was “inactive”.

Take SKAMWLSLM: the amyloid nucleation score entry was “inactive”.

YLGRFNSKFMTSVLIMYYP: the amyloid nucleation score result was “inactive”.

As for SFIIYCPVKKPQIVFHRLPS, the amyloid nucleation score came to 2.36 ± 0.056.

For the substance SQSNGFGFFYMMSLVSWVDV, the amyloid nucleation score result was “inactive”.

ANVLKFIWAFVWASVALLWS: the amyloid nucleation score result is “inactive”.

With LVVGISRPMSTGSMASWQWR, the amyloid nucleation score entry was “inactive”.

Regarding HSINV, the amyloid nucleation score entry is “inactive”.

As to RNPWKFAATRFRLLQNPLVE, the amyloid nucleation score was -0.185 ± 0.9.

As for FTMSYYKYLSHGRMRRGT, the amyloid nucleation score result is “inactive”.

As to IRFSKTLRVIVHGEGNGKLC, the amyloid nucleation score entry is “inactive”.

For HRYYCRLVFVEQTRDNIQPW, the amyloid nucleation score result is “inactive”.

On to GLWNDCKRWLRRS, for which the amyloid nucleation score entry is “inactive”.

Turning to VGGQISRDNGCLSILMSFDN, the amyloid nucleation score result was “inactive”.

For the substance VSSFWFCLS, the amyloid nucleation score result is “inactive”.

Substance RYTVSGTLSAYF gave an amyloid nucleation score of -0.112 ± 0.37.

In turn, AISYFSSWGAM displayed an amyloid nucleation score of 0.485 ± 0.24.

Turning to DLILWFPL, the amyloid nucleation score result was “inactive”.

As for YYSSWLFTGMVGSYTFTALC, the amyloid nucleation score result was “inactive”.

With SKFLVNGAGLDELDVLVCLL, the amyloid nucleation score result is “inactive”.

On to IYPMLW, for which the amyloid nucleation score was -0.428 ± 0.62.

In the case of NSNLDSSVYSVILYGLGVWM, the amyloid nucleation score turned out to be 1.18 ± 0.094.

Substance ILWLLILTFLNRRARCIEQN gave an amyloid nucleation score of -0.567 ± 0.51.

Take LMSLWLLLWGTEESALDMAD: the amyloid nucleation score result was “inactive”.

In turn, NWIYYTMWSL returned an amyloid nucleation score of 0.581 ± 0.17.

As to VIHSLLALTDLMSKSYLTIY, the amyloid nucleation score result is “inactive”.

On to YVCLYEDLTYIA, for which the amyloid nucleation score result was “inactive”.

RFMFSLFMNEGNMLHMLRRV: the amyloid nucleation score result is “inactive”.

On to PALMDLGYRYVSRNFDL, for which the amyloid nucleation score result is “inactive”.

As for MSSYKCSECLRGHRGTPLPV, the amyloid nucleation score result is “inactive”.

For VMKHHALGLEEWPQYTSYAW, the amyloid nucleation score result was “inactive”.

The substance PLHSWKQCALRRVSSNTSSG yielded an amyloid nucleation score of 1.75 ± 0.093.

Turning to MQVILNNVFSTFPLPAGLLR, the amyloid nucleation score entry is “inactive”.

With WTVGCREWLSLCCSAKDTDA, the amyloid nucleation score entry is “inactive”.

Consider LALWFRGPLLLLSSLI, for which the amyloid nucleation score entry was “inactive”.

As for KWGSATTCFI, the amyloid nucleation score came out at 0.067 ± 0.31.

TVRWDVSLMFMRPMMYGEPK displayed an amyloid nucleation score of -0.13 ± 1.1.

TIGFIGWWGVFYDTDWLRI returned an amyloid nucleation score of -0.566 ± 1.4.

YCTRNTCEIVGCILCGGLLS yielded an amyloid nucleation score of 2.45 ± 0.086.

Turning to LSVMDGTSYAGCELKNVEGW, the amyloid nucleation score result was “inactive”.

Regarding MKDMSFTYLLFKSHCAWVSL, the amyloid nucleation score result was “inactive”.

Turning to DKELKPNFRWGRNFYSFYIC, the amyloid nucleation score result was “inactive”.

As to YVVAGS, the amyloid nucleation score entry is “inactive”.

In turn, SQGQY returned an amyloid nucleation score of -0.672 ± 1.4.

With FNGSTCCVSSV, the amyloid nucleation score result is “inactive”.

Regarding GIWSASRLKGNSLYCLLKNV, the amyloid nucleation score result was “inactive”.

In the case of NAFGYSDVTVLVNSSLFESY, the amyloid nucleation score entry was “inactive”.

FLFSWEKFVCLCCILY yielded an amyloid nucleation score of 0.32 ± 0.49.

As to FIWAREFSVLRSHRRWPTEN, the amyloid nucleation score entry is “inactive”.

Take WANMQETFWRMWTRPVLTCG: the amyloid nucleation score result is “inactive”.

In the case of NGDMKARTFHTRDFKFGVPR, the amyloid nucleation score entry was “inactive”.

As to HWESGGKIWNKEYLAGLLPR, the amyloid nucleation score entry is “inactive”.

Consider LSEFYPAMRSTTTPVQNVSG, for which the amyloid nucleation score entry is “inactive”.

In turn, CSEVFTSNWAYETASNCKRV returned an amyloid nucleation score of 1.08 ± 0.12.

In the case of FYFKR, the amyloid nucleation score entry was “inactive”.

Turning to HLRKVCGGFM, the amyloid nucleation score result is “inactive”.

Turning to VSRSRER, the amyloid nucleation score entry was “inactive”.

In the case of NTDVVCMLNWLLTW, the amyloid nucleation score result is “inactive”.

Turning to LHLHFAIKKLGLRLSTKWWV, the amyloid nucleation score result was “inactive”.

On to FGCRSNDNQ, for which the amyloid nucleation score result is “inactive”.

In the case of RKHLDLT, the amyloid nucleation score result was “inactive”.

On to NYTVLYGNSLSFFRSHLCRV, for which the amyloid nucleation score entry is “inactive”.

Take NFINYLR: the amyloid nucleation score result is “inactive”.

In the case of INQRVYESWLAFV, the amyloid nucleation score entry was “inactive”.

In turn, NFLLDSLSSETGFRCY registered an amyloid nucleation score of -0.607 ± 1.

On to NESFDCPFAGLYRKQYIWQT, for which the amyloid nucleation score entry was “inactive”.

As to ISNLRYRSWAYLVRSFCSVL, the amyloid nucleation score result is “inactive”.

As for WIFRFAYVVHDAWFSENRYP, the amyloid nucleation score entry was “inactive”.

Consider STYRHLDRSL, for which the amyloid nucleation score result was “inactive”.

As to VRIFYMV, the amyloid nucleation score result is “inactive”.

Regarding KRFHMYVHGSDMEVLLAGKC, the amyloid nucleation score entry was “inactive”.

Regarding SIPPRMRCFLGCFWSISWDA, the amyloid nucleation score result is “inactive”.

The values are drawn from the supplement of paper PMC12042874.
